Measurements taken from patent US20220396635A1 (UNIVERSIT T STUTTGART, published 2022).

B1: scDb3-43xhuU3-scFv3-43-His (bispecific antibody)
chain: QVQLQQSGPGLVKPSQTLSLTCAISGDSVSSNRAAWNWIRQSPSRGLEWLGRTYYRSKWYNDYAQSLKSRITINPDTPKNQFSLQLNSVTPEDTAVYYCARDGQLGLDALDIWGQGTMVTVSSGGGGSDIQMTQSPSSLSASVGDRVTITCRASQDIRNYLNWYQQKPGKAPKLLIYYTSRLHSGVPSRFSGSGSGTDFTFTISSLQPEDIATYYCQQGNTLPWTFGQGTKLEIKRGGGGSGGGGSGGGGSQVQLVQSGAEVKKPGSSVKVSCKASGGTFSGYTMNWVRQAPGQGLEWMGLINPYKGVSTYNGKFKDRVTITADKSTSTAYMELSSLRSEDTAVYYCARSGYYGDSDWYFDVWGQGTLVTVSSGGGGSQAGLTQPPAVSVAPGQTASITCGRDNIGSRSVHWYQQKPGQAPVLVVYDDSDRPAGIPERFSGSNYENTATLTISRVEAGDEADYYCQVWGITSDHVVFGGGTKLTVLAAAGGSGGGGSGGGTQVQLQQSGPGLVKPSQTLSLTCAISGDSVSSNRAAWNWIRQSPSRGLEWLGRTYYRSKWYNDYAQSLKSRITINPDTPKNQFSLQLNSVTPEDTAVYYCARDGQLGLDALDIWGQGTMVTVSSGGGGSGGGGSGGGGSQAGLTQPPAVSVAPGQTASITCGRDNIGSRSVHWYQQKPGQAPVLVVYDDSDRPAGIPERFSGSNYENTATLTISRVEAGDEADYYCQVWGITSDHVVFGGGTKLTVLGSLHHHHHH
notes: Single chain, trivalent: two HER3 sites (3-43) and one CD3 site (huU3); The His tag is part of the entry; also called scDb-scFv; trivalent anti-HER3×anti-CD3 bsAb
B2: scDb3-43xhuU3-His (bispecific antibody)
chain: QVQLQQSGPGLVKPSQTLSLTCAISGDSVSSNRAAWNWIRQSPSRGLEWLGRTYYRSKWYNDYAQSLKSRITINPDTPKNQFSLQLNSVTPEDTAVYYCARDGQLGLDALDIWGQGTMVTVSSGGGGSDIQMTQSPSSLSASVGDRVTITCRASQDIRNYLNWYQQKPGKAPKLLIYYTSRLHSGVPSRFSGSGSGTDFTFTISSLQPEDIATYYCQQGNTLPWTFGQGTKLEIKRGGGGSGGGGSGGGGSQVQLVQSGAEVKKPGSSVKVSCKASGGTFSGYTMNWVRQAPGQGLEWMGLINPYKGVSTYNGKFKDRVTITADKSTSTAYMELSSLRSEDTAVYYCARSGYYGDSDWYFDVWGQGTLVTVSSGGGGSQAGLTQPPAVSVAPGQTASITCGRDNIGSRSVHWYQQKPGQAPVLVVYDDSDRPAGIPERFSGSNYENTATLTISRVEAGDEADYYCQVWGITSDHVVFGGGTKLTVLAAAHHHHHH
notes: Single-chain diabody, bivalent: one HER3 site (3-43) and one CD3 site (huU3, humanized UCHT1); The His tag is part of the entry; also called anti-HER3×CD3 bispecific scDb

Key:
HER3 [1] = target: T1, HER3 (UniProt P21860 20-1342, limits assumed); assay: cell-based or functional assay
HER3 [2] = target: T1, HER3; assay: cell-based or functional assay; remark: listed apart in the source
HER3 [3] = target: T1, HER3; assay: flow cytometry, serial dilution on FaDu cells (HER3-expressing), PE anti-His detection
Method: (§1) Cell binding studies were performed by flow cytometry using cell lines with different expression levels of HER3 (Table 1). Adherent cells were washed with PBS and shortly trypsinized at 37° C. Trypsin was quenched with FCS-containing medium and removed by centrifugation (500×g, 5 min.). 1×10⁵ target cells (MCF-7, Jurkat, BT-474, FaDu, or LIM1215) were incubated with a serial dilution of recombinant proteins for 1 hour at 4° C. Bound protein was detected using a PE-conjugated anti-hexahistidyl tag mAb (Miltenyi Biotec). Incubation and washing steps were performed in PBS, 2% FBS, and 0.02% sodium azide. Fluorescence was measured by MACSQuant VYB (Miltenyi Biotec) and data were analyzed using FlowJo (Tree Star). Relative median fluorescence intensities (MFI) were calculated as followed: relative MFI=((MFIₛₐₘₚₗₑ−(MFIdetection−MFIcells))/MFIcells).

CD3 = target: T2, CD3 (UniProt P07766 23-207); assay: flow cytometry, serial dilution on Jurkat cells (CD3-expressing), PE anti-His detection
T2 construct: whole, on cells; on cells it stands in the TCR/CD3 complex; also called CD3 on Jurkat cells
Method: as §1

HER3 [4] = target: T1, HER3; assay: flow cytometry, serial dilution on MCF-7 cells (HER3-expressing), PE anti-His detection
Method: as §1

HER3 [5] = target: T1, HER3; assay: flow cytometry, serial dilution on BT-474 cells (HER3-expressing), PE anti-His detection
Method: as §1

HER3 [6] = target: T1, HER3; assay: flow cytometry, serial dilution on LIM1215 cells (HER3-expressing), PE anti-His detection
Method: as §1

HER3 [7] = target: T1, HER3; assay: flow cytometry on HER3-expressing cell lines, EC50 compared with scDb-scFv
Method: as §1

| Binder | EC50 of CD69 expression on CD4+ T-cells (CD4+CD69+), MCF-7 co-culture (HER3 [1]) [nM] | EC50 of CD69 expression on CD8+ T-cells (CD8+CD69+), MCF-7 co-culture (HER3 [1]) [nM] | EC50 of IFN-γ release, PBMCs co-cultured with MCF-7 cells (HER3 [1]) [nM] | EC50 of IL-2 release, PBMCs co-cultured with MCF-7 cells (HER3 [1]) [nM] | EC50 of proliferation of CD4+ T-cells, MCF-7 co-culture (HER3 [1]) [nM] | EC50 of proliferation of CD8+ T-cells, MCF-7 co-culture (HER3 [1]) [nM] | EC50 of PBMC cytotoxicity on BT-474 cells, E:T 5:1 (HER3 [2]) [nM] | EC50 of PBMC cytotoxicity on BT-474 cells, E:T 10:1 (HER3 [2]) [nM] | EC50 of PBMC cytotoxicity on FaDu cells, E:T 5:1 (HER3 [2]) [nM] | EC50 of PBMC cytotoxicity on FaDu cells, E:T 10:1 (HER3 [2]) [nM] | EC50 of PBMC cytotoxicity on LIM1215 cells, E:T 5:1 (HER3 [2]) [nM] | EC50 of PBMC cytotoxicity on LIM1215 cells, E:T 10:1 (HER3 [2]) [nM] | EC50 of PBMC cytotoxicity on MCF-7 cells, E:T 5:1 (HER3 [2]) [nM] | EC50 of PBMC cytotoxicity on MCF-7 cells, E:T 10:1 (HER3 [2]) [nM] | EC50 (HER3 [3]) [nM] | EC50 (CD3) [nM] | EC50 (HER3 [4]) [nM] | EC50 (HER3 [5]) [nM] | EC50 (HER3 [6]) [nM] | fold weaker binding than scDb-scFv (HER3 [7]) [fold] |
| --- | --- | --- | --- | --- | --- | --- | --- | --- | --- | --- | --- | --- | --- | --- | --- | --- | --- | --- | --- | --- |
| B1 | 0.003 | 0.02 | 0.567 | 0.403 | 0.08 | 0.09 | 0.002 | 0.007 | 0.2 | 0.1 | 0.003 | 0.001 | 0.003 | 0.001 | 0.1 | 4 | 0.03 | 0.2 | 0.2 |  |
| B2 | 0.1 | 0.16 | 0.609 | 0.404 | 0.5 | 0.3 | 0.17 | 0.2 | 0.4 | 0.3 | 0.08 | 0.03 | 0.07 | 0.014 |  | 1.64 | 4.7 | 9.7 | 11.7 | ≤ 50 |
